Reference: article PMC10063552, “Utilizing genetic code expansion to modify N-TIMP2 specificity towards MMP-2, MMP-9, and MMP-14” (Scientific Reports, 2023)

What was measured:
Test in all cases: enzyme inhibition assay (cleavage of a chromogenic substrate, fit to Morrison's tight binding equation); MMP-2ACT (0.6 nM), MMP-9CAT (3 nM) or MMP-14CAT (1 nM) incubated with 0-25 nM N-TIMP2 variant in 50 mM HEPES, 10 mM CaCl2, 0.05% Brij-35, 1 mM DTNB, pH 7.5, 1 h at 37 °C; then 100 µM chromogenic substrate, absorbance at 412 nm at 37 °C; Ki from three independent experiments
Details in all cases: both partners purified
[1] = target: T1, human MMP-9 catalytic domain (MMP-9CAT) (human, UniProt P14780 107-215; P14780 391-443)
T1 construct: Matrix metalloproteinase-9 (MMP-9), human, catalytic domain, first stretch, residues 107-215; Matrix metalloproteinase-9 (MMP-9), human, catalytic domain, second stretch, residues 391-443 (residues 216-390 left out); no linker between the two stretches is stated
T1 chain (looked up): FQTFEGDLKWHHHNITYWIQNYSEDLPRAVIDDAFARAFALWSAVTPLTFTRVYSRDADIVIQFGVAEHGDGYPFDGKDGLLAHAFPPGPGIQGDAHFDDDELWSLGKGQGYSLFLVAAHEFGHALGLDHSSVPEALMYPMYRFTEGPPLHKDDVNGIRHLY

[2] = target: T2, activated MMP-2 (MMP-2ACT) (human, APMA-activated in vitro (propeptide 30-109 removed); catalytic Zn2+, structural Zn2+ and Ca2+ ions. Limits are not printed: full-length active chain taken from the UniProt feature. The tables label it)
T2 chain: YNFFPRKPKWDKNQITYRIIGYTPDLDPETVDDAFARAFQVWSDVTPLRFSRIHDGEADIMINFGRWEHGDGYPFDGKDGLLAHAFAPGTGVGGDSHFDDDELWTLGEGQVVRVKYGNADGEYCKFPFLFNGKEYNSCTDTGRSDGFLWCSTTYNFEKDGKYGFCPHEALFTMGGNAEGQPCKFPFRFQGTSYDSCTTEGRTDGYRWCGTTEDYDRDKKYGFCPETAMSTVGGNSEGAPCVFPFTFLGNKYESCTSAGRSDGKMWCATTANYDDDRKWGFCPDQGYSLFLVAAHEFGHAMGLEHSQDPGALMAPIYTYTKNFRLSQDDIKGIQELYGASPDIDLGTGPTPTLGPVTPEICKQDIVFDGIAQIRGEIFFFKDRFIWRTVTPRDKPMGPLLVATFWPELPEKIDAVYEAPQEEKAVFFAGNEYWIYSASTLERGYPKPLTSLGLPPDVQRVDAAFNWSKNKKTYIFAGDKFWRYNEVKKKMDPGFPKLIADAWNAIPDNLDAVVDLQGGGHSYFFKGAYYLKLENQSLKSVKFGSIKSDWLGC

[3] = target: T3, human MMP-14 catalytic domain (MMP-14CAT) (human, UniProt P50281 112-292)
T3 construct: Matrix metalloproteinase-14 (MMP-14), human, catalytic domain, residues 112-292

B1: N-terminal domain of TIMP2 (N-TIMP2), wild type (domain or fragment, human, UniProt P16035 27-153, looked up)
chain: CSCSPVHPQQAFCNADVVIRAKAVSEKEVDSGNDIYGNPIKRIQYEIKQIKMFKGPEKDIEFIYTAPSSAVCGVSLDVGGKKEYLIAGKAEGDGKMHITLCDFIVPWDTLSTTQKKSLNHRYQMGCE
notes: numbers count on: the mature protein (Cys1 is the N-terminal residue); Cloned into the pMECS vector; also called wild-type N-TIMP2; parental N-TIMP2; source: E. coli WK6, periplasmic extract, purified (Ni-NTA)
Ki [1]: 0.322 nM
Ki [2]: 0.233 nM
Ki [3]: 0.711 nM
